Literature values, collected in PMC4850115.

Molecular target: p38 (Homo sapiens) (UniProt Q16539)
Chain of UniProt Q16539 (Q16539 2-360): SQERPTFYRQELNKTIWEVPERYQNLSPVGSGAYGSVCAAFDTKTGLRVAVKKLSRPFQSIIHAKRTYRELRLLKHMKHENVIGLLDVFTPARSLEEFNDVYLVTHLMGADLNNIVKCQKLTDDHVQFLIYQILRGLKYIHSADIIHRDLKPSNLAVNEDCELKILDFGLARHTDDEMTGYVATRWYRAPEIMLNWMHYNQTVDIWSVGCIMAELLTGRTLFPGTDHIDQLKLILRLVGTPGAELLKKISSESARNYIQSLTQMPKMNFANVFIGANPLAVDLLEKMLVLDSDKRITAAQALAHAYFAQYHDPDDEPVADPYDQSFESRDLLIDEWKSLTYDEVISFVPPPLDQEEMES

For MK2 370-400 (from UniProt P49137), the Kd is listed as 20 nM.
